The source of these data is patent US6994974 (TRUSTEES OF COLUMBIA UNIVERSITY IN THE CITY OF NEW YORK, dated 2006).

The target of this test is T1, amyloid-beta peptide (1-40), freshly prepared synthetic (UniProt P05067 672-711, 125I label when used as tracer; residue not stated).
T1 construct: domain: amyloid-beta peptide (1-40)
Put plainly: radioligand binding to coated microtiter wells.

B1: TrcHis-chloramphenicol acetyltransferase (CAT) fusion protein (other)
chain: MEKKITGYTTVDISQWHRKEHFEAFQSVAQCTYNQTVQLDITAFLKTVKKNKHKFYPAFIHILARLMNAHPEFRMAMKDGELVIWDSVHPCYTVFHEQTETFSSLWSEYHDDFRQFLHIYSQDVACYGENLAYFPKGFIENMFFVSANPWVSFTSFDLNVANMDNFFAPVFTMGKYYTQGDKVLMPLAIQVHHAVCDGFHVGRMLNELQQYCDEWQGGA
notes: also called TrcHis-CAT; not shown: N-terminal TrcHis leader of the Invitrogen control construct
On to B1, for which the binding result is reported as “no binding (tested: 100 nM)”.
